Source: patent publication US20020165132A1

Assays:
[1] = target: δ receptor (δ-Binding assay, replacement of 3H-naltrindole); test: δ-Binding, replacement of 3H-naltrindole (radioligand displacement)
[2] = target: µ-receptor (guinea pig ileum preparation) (guinea pig); test: cell-based or functional assay
[3] = target: δ-receptor (mouse vas deferens preparation) (mouse) (UniProt P32300); test: cell-based or functional assay
Chain of δ-receptor (mouse vas deferens preparation) (mouse) (P32300 whole entry, stated change not applied): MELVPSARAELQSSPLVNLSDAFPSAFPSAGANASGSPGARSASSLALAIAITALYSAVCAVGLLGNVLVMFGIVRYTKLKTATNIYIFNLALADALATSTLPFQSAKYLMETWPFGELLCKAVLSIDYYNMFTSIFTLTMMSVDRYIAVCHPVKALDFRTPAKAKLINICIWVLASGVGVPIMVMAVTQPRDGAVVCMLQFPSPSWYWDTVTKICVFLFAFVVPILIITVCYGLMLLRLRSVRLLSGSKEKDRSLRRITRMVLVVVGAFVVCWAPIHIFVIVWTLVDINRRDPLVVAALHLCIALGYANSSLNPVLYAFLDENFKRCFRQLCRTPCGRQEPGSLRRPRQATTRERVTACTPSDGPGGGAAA

| Substance | IC50 [1] | GPI IC50 [2] | MVD IC50 [3] |
| --- | --- | --- | --- |
| Tyr-c[D-Cys-Gly-Phe-L-Cys]-NH2 (peptide) | – | 1.51 nM | – |
| Tyr-c[D-Cys-Gly-Phe-L-Cys]-OH (peptide) | – | 3.06 nM | – |
| Tyr-c[D-AlaL-Gly-Phe-L-AlaL]-NH2 (peptide) | 7 nM | – | – |

Now from value to substance:

| IC50 [1] | GPI IC50 [2] | MVD IC50 [3] | Substance |
| --- | --- | --- | --- |
| 1 nM | – | – | Tyr-c[D-AlaL-Gly-Phe-L-AlaL]-OH (peptide) |
| – | 0.78 nM | – | Tyr-c[D-Cys-Gly-Phe-D-Cys]-NH2 (peptide) |
| – | 7300 nM | 4.1 nM | Tyr-c[D-Pen-Gly-Phe-D-Pen]-OH (peptide) |
